Reference: patent US20170247475A1 (Boehringer Ingelheim, published 2017)
Changes are numbered by the printed parent chain.

T1: human VEGF-D (human, UniProt O43915 93-201)
T1 construct: also called hVEGF-D
T1 sequence (looked up): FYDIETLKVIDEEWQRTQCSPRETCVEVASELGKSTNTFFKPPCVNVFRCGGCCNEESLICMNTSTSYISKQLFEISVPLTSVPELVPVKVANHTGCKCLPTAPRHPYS

T2: human VEGF-C (human, UniProt P49767 103-227)
T2 construct: also called hVEGF-C
T2 sequence (looked up): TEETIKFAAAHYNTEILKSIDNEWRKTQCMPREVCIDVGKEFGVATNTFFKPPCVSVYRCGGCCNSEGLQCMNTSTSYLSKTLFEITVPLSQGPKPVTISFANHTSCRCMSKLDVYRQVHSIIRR

T3: human PIGF (human, UniProt P49763-2 21-149, limits assumed)
T3 construct: also called hPIGF; PLGF
T3 sequence (looked up): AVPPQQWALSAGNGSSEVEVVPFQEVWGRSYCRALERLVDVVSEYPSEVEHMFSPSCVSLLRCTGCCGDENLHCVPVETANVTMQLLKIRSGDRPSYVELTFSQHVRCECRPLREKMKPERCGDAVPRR

T4: human VEGF-B (human, UniProt P49765-2 22-188, limits assumed)
T4 construct: also called hVEGF-B
T4 sequence (looked up): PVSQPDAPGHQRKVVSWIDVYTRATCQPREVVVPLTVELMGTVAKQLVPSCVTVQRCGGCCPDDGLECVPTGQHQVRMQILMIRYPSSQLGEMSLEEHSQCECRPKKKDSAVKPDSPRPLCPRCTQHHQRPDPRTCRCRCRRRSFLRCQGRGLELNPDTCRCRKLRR

T5: recombinant mouse VEGF164 (mouse, UniProt Q00731-2 27-190)
T5 construct: biotinylated in the mVEGFR2 AlphaScreen; also called rmVEGF164; mVEGF164
T5 sequence (looked up): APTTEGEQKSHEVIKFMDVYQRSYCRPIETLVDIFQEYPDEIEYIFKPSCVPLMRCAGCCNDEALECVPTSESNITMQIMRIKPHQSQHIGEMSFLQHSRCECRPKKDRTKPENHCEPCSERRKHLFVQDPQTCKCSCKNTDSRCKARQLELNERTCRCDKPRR

T6: recombinant human VEGF121 (human, UniProt P15692-9 27-147)
T6 construct: also called rhVEGF121; hVEGF121
T6 sequence (looked up): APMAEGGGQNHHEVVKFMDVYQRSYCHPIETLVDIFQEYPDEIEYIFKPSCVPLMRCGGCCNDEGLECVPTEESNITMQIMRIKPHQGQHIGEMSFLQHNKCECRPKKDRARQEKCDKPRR

B1: VEGFBII23A06 (VHH)
VHH: EVQLVESGGGLVQPGDSLKLSCAFSGRTFSSYSMGWFRQAQGKEREFVVAISSGGFIYDAVSLEGRFTISRDNTKNTVYLQTPSLKPEDTAVYYCAASRAYGSSRLRLADTYDYWGQGTQVTVSS
notes: also called 23A6; VEGFBII23A6
B2: VEGFBII24C04 (VHH)
VHH: B1 VHH with A23V, F24A, F29S, F56Y, A60S, E64Q
notes: also called VEGFBII24C4

Key:
[1] = molecular target: T7, recombinant human VEGF165 (human, UniProt P15692-4 27-191); experiment: hVEGF165/hVEGFR2-Fc competition ELISA
T7 construct: also called hVEGF165; rhVEGF165

[2] = molecular target: T7, recombinant human VEGF165; experiment: binding ELISA, coated rhVEGF165
[3] = molecular target: T7, recombinant human VEGF165; experiment: hVEGF165/hVEGFR1-Fc competition AlphaScreen
Experimental: (§1) Finally, streptavidin donor beads (20 μg/ml) are added and after 1 hour of incubation in the dark, fluorescence is measured on the Envision microplate reader.

[4] = molecular target: T1, human VEGF-D; experiment: solid phase binding ELISA
Experimental: (§2) Binding to VEGFB, VEGFC, VEGFD and PIGF is assessed via a solid phase binding ELISA. In brief, VEGFB, VEGFC, VEGFD and PIGF (R&D Systems, Minneapolis, Minn., USA) are coated overnight at 4° C. at 1 μg/mL in a 96-well MaxiSorp plate (Nunc, Wiesbaden, Germany). Wells are blocked with a casein solution (1% in PBS). […] As positive controls serial dilutions of the appropriate receptors are taken along and detected with horseradish peroxidase (HRP)-conjugated goat anti-human IgG, Fc specific antibody (Jackson Immuno Research Laboratories Inc., West Grove, Pa., USA) and a subsequent enzymatic reaction in the presence of the substrate TMB (3,3′,5,5′-tetramentylbenzidine) (Pierce, Rockford, Ill., USA).

[5] = molecular target: T2, human VEGF-C; experiment: solid phase binding ELISA
Experimental: as §2

[6] = molecular target: T3, human PIGF; experiment: solid phase binding ELISA
Experimental: as §2

[7] = molecular target: T4, human VEGF-B; experiment: solid phase binding ELISA
Experimental: as §2

[8] = molecular target: T5, recombinant mouse VEGF164; experiment: binding ELISA, coated rmVEGF164
Experimental: Cross-reactivity to mouse VEGF164 is determined using a binding ELISA. […] Wells are blocked with a casein solution (1% in PBS). […] A mouse VEGF164 reactive mAb is included as positive control.

[9] = molecular target: T7, recombinant human VEGF165; experiment: kd1; SPR Biacore T100, hVEGF165 on chip, Two State Reaction model
Experimental: (§3) Samples are injected for 2 min and allowed to dissociate up to 20 min at a flow rate of 45 μI/min. In between sample injections, the chip surface is regenerated with 100 mM HCl. HBS-EP+(Hepes buffer pH7.4+EDTA) is used as running buffer. Binding curves are fitted using a Two State Reaction model by Biacore T100 Evaluation Software v2.0.1.
(§4) ^{(a)}Heterogeneous binding curve resulting in no 1:1 fit, curves are fitted using a Two State Reaction model by Biacore T100 Evaluation Software v2.0.1

[10] = molecular target: T7, recombinant human VEGF165; experiment: SPR Biacore T100, hVEGF165 on chip, Two State Reaction model
Experimental: as §3, §4

[11] = molecular target: T7, recombinant human VEGF165; experiment: hVEGF165/hVEGFR2-Fc competition AlphaScreen
Experimental: as §1

[12] = molecular target: VEGF; experiment: cell-based or functional assay
[13] = molecular target: T7, recombinant human VEGF165; experiment: Biacore, periplasmic extract on hVEGF165 chip, two phase decay fit
Experimental: (§5) Dissociation rates of inhibitory VHHs are analyzed on Biacore (Biacore T100 instrument, GE Healthcare). HBS-EP+ buffer is used as running buffer and experiments are performed at 25° C. […] After immobilization, surfaces are deactivated with 10 min injection of 1M ethanolamine pH8.5. A reference surface is activated and deactivated with respectively EDC/NHS and ethanolamine. Periplasmic extracts of VHHs are injected at a 10-fold dilution in running buffer for 2 min at 45 μl/min and allowed to dissociate for 10 or 15 min. Between different samples, the surfaces are regenerated with regeneration buffer. Data are double referenced by subtraction of the curves on the reference channel and of a blank running buffer injection. […] is evaluated by fitting a two phase decay model in the Biacore T100 Evaluation software v2.0.1.
Target sequence in this assay (P15692 other isoform, or with tags, fused parts or gaps limits assumed): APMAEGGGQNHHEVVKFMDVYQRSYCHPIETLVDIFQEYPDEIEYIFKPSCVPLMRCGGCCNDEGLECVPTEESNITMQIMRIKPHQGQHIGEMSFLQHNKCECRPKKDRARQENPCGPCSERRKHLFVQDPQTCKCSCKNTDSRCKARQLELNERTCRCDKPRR

[14] = molecular target: T6, recombinant human VEGF121; experiment: binding ELISA, coated rhVEGF121
Experimental: Binding to recombinant human VEGF121 is assessed via a solid phase binding ELISA. Briefly, recombinant human VEGF121 (R&D Systems, Minneapolis, Minn., USA) is coated overnight at 4° C. at 1 μg/mL in a 96-well MaxiSorp plate (Nunc, Wiesbaden, Germany). Wells are blocked with a casein solution (1% in PBS).

[15] = molecular target: T7, recombinant human VEGF165; experiment: Biacore, periplasmic extract on hVEGF165 chip
Experimental: as §5
Target sequence in this assay (P15692 other isoform, or with tags, fused parts or gaps limits assumed): as above

[16] = molecular target: T7, recombinant human VEGF165; experiment: ka1; SPR Biacore T100, hVEGF165 on chip, Two State Reaction model
Experimental: as §3, §4

[17] = molecular target: T7, recombinant human VEGF165; experiment: hVEGF165/hVEGFR1-Fc competition ELISA

| Binder | % inhibition [1] [%] | IC50 [1] [pM] | EC50 [2] [pM] | % inhibition [3] [%] | IC50 [3] [pM] | binding result [4] | binding result [5] | binding result [6] | binding result [7] | binding result [8] | koff [9] [s⁻¹] | Kd [10] [pM] | kd2 [10] [s⁻¹] | % inhibition [11] [%] | IC50 [11] [pM] | % inhibition, VEGF HUVEC proliferation assay [12] [%] | IC50 (nM), VEGF HUVEC proliferation assay [12] [nM] | % fast [13] [%] | EC50 [14] [pM] | Binding level (RU) [15] [RU] | also measured |
| --- | --- | --- | --- | --- | --- | --- | --- | --- | --- | --- | --- | --- | --- | --- | --- | --- | --- | --- | --- | --- | --- |
| B1 | 100 | 3000 | 531 | 46 | 400 | no binding (tested: 500 nM-32 pM) | no binding (tested: 500 nM-32 pM) | no binding (tested: 500 nM-32 pM) | no binding (tested: 500 nM-32 pM) | no binding (tested: 500 nM-32 pM) | 0.057 | 700 | 0.0001 | 100 | 250 | 73 | 4.29 | 13 | 928 | 547 | kon [16]: 420000 M⁻¹ s⁻¹; % inhibition [17]: 55%; IC50 [17]: 900 pM |
| B2 | 100 | 2500 | 453 | 53 | 200 | no binding (tested: 500 nM-32 pM) | no binding (tested: 500 nM-32 pM) | no binding (tested: 500 nM-32 pM) | no binding (tested: 500 nM-32 pM) | no binding (tested: 500 nM-32 pM) | 0.026 | 400 | 9.6e-05 | 100 | 250 | 79 | 3.8 | 17 | 792 | 456 | kon [16]: 320000 M⁻¹ s⁻¹; % inhibition [17]: 71%; IC50 [17]: 800 pM |
